{
  "source": "patent US20110218118A1",
  "about": "“PEPTIDE MODULATORS OF CELLULAR PHENOTYPE AND BI-NUCLEIC ACID FRAGMENT LIBRARY” (PHYLOGICA LIMITED, priority 2004, published 2011)",
  "origin": "cited, not measured here",
  "target": "T1, human cyclin E (Homo sapiens, UniProt P24864)",
  "T1 construct": "expressed in transfected cells; host or cells: Saccharomyces cerevisiae strain AZ-1 (huCDK2::his2), mated with PRT 51",
  "T1 sequence (P24864 16-410)": "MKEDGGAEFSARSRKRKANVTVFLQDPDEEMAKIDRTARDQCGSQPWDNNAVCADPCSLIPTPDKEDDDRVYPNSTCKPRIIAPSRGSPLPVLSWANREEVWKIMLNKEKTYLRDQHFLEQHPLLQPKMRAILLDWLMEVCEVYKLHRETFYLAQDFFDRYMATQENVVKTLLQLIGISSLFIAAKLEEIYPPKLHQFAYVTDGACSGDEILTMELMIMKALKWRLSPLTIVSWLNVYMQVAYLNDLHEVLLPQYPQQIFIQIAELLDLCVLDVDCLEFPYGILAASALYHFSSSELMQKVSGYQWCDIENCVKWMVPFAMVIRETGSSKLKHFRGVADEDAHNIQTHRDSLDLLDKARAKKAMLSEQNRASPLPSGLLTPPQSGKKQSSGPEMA",
  "conditions": "yeast over-expressing human cyclin E and co-expressing human Cdk2",
  "data": [
    {"substance": "p21^CIP1: positive control protein, cDNA (SEQ ID NO: 60) cloned as in-frame fusion into the pMF4-5 plasmid", "values": [
      {"measurement": "rescue of the cyclin E lethal phenotype in yeast", "result": "rescue the lethal phenotype in yeast"}
    ]}
  ]
}
